Assay results reported in doi:10.1101/462036 (bioRxiv, 2018).

Target: the molecule itself
Test: SEC

B1: RIG-5 IG1 (purified, hexahistidine tag) (domain or fragment)
chain: GAPPTIQQPSMSSAVALLGQDVDFTCIVNDLGSHMVAFVKADSPPRLLSFDEKVFRRRNKYELKPRIGDLHNEWVLTIKNVQESDRGNYSCQINTEPITLSTGELDVKVP
modifications: one N-linked glycan per monomer
B1 was tested, and the “stoichiometry N” value was 2.
